Measurements from US20240043537A1.
Positions count from the first letter of the chain named.

B1: DART-A-M21 (bispecific antibody)
chain 1: DFVMTQSPDSLAVSLGERVTMSCKSSQSLLNSGNQKNYLTWYQQKPGQPPKLLIYWASTRESGVPDRFSGSGSGTDFTLTISSLQAEDVAVYYCQNDYSYPYTFGQGTKLEIKGGGSGGGGEVQLVESGGGLVQPGGSLRLSCAASGFTFSTYAMNWVRQAPGKGLEWVGRIRSKYNNYATYYADSVKDRFTISRDDSKNSLYLQMNSLKTEDTAVYYCVRHKNFGNSYVSFFAYWGQGTLVTVSSGGCGGGKVAALKEKVAALKEKVAALKEKVAALKE
chain 2: QAVVTQEPSLTVSPGGTVTLTCRSSTGAVTTSNYANWVQQKPGQAPRGLIGGTNKRAPWTPARFSGSLLGGKAALTITGAQAEDEADYYCALWYSNLWVFGGGTKLTVLGGGGSGGGGEVQLVQSGAELKKPGASVKVSCKASGYTFTDYYMKWVRQAPGQGLEWIGDIIPSNGATFYNQKFKGRVTITVDKSTSTAYMELSSLRSEDTAVYYCARSHLLRASWFAYWGQGTLVTVSSGGCGGGEVAALEKEVAALEKEVAALEKEVAALEK
B2: DART-A-M20 (bispecific antibody)
chain 1: B1 chain 1 with Y229G, F232W
chain 2: B1 chain 2
B3: DART-A-M14 (bispecific antibody)
chain 1: B1 chain 1 with T152D, K223G, F232W
chain 2: B1 chain 2
B4: DART-A-M15 (bispecific antibody)
chain 1: B1 chain 1 with T152E, K223G, F232W
chain 2: B1 chain 2
B5: DART-A-M7 (bispecific antibody)
chain 1: B1 chain 1 with K223D, F232W
chain 2: B1 chain 2
B6: DART-A-M19 (bispecific antibody)
chain 1: B1 chain 1 with F225I, F232W
chain 2: B1 chain 2
B7: DART-A-M12 (bispecific antibody)
chain 1: B1 chain 1 with K223G, F232Y
chain 2: B1 chain 2
B8: DART-A-M10 (bispecific antibody)
chain 1: B1 chain 1 with K223G, F225I, F232W
chain 2: B1 chain 2
B9: DART-A-M16 (bispecific antibody)
chain 1: B1 chain 1 with Y153D, K223G, F232W
chain 2: B1 chain 2
B10: DART-A-M5 (bispecific antibody)
chain 1: B1 chain 1 with K223G, Y229G, F232W
chain 2: B1 chain 2
B11: DART-A-M17 (bispecific antibody)
chain 1: B1 chain 1 with Y153T, K223G, F232W
chain 2: B1 chain 2
B12: DART-A-M13 (bispecific antibody)
chain 1: B1 chain 1 with K223G, F232W, Y235E
chain 2: B1 chain 2
B13: DART-A-M18 (bispecific antibody)
chain 1: B1 chain 1 with A154G, K223G, F232W
chain 2: B1 chain 2
B14: DART-A-M2 (bispecific antibody)
chain 1: B1 chain 1 with S231T, F232W
chain 2: B1 chain 2

How the values were obtained:
[1] = molecular target: CD3 (as used for the BIACORE kinetics of Table 11) (UniProt P07766); assay: SPR (BIACORE)
CD3 on T-cells = CD3 on T-cells (UniProt P07766); assay: cell-based or functional assay
CD3 on T-cells, sequence (P07766 23-207): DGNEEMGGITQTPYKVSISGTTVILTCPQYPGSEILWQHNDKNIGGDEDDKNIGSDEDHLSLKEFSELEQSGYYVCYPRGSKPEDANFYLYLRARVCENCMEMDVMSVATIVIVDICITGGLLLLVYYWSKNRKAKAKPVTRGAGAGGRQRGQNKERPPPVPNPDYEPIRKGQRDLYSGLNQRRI

CD3 (as used for the BIACORE kinetics of Table 11), sequence (P07766 23-126): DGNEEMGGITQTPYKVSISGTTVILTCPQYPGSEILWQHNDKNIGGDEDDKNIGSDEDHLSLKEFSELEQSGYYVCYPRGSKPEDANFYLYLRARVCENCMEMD

Binder	Kd [1]	R (KD ratio to DART-A-WT) [1]	R (ka ratio to DART-A-WT) [1]	R (kd ratio to DART-A-WT) [1]	koff [1]	kon [1]	EC50 of cytolysis at 18 hours (CTL assay, Pan-T-cells and MOLM-13, E:T = 5:1) (CD3 on T-cells)	R: ratio of 18 hour EC50 to DART-A-WT (CTL assay, Pan-T-cells and MOLM-13, E:T = 5:1) (CD3 on T-cells)	R: ratio of 42 hour EC50 to DART-A-WT (CTL assay, Pan-T-cells and MOLM-13, E:T = 5:1) (CD3 on T-cells)	max % CytoTox at 18 hours (CTL assay, Pan-T-cells and MOLM-13, E:T = 5:1) (CD3 on T-cells)	max % CytoTox at 42 hours (CTL assay, Pan-T-cells and MOLM-13, E:T = 5:1) (CD3 on T-cells)	EC50 of cytolysis at 42 hours (CTL assay, Pan-T-cells and MOLM-13, E:T = 5:1) (CD3 on T-cells)
B1	4.18 nM	0.5	4.9	2.5	0.0103 s⁻¹	2.45e+06 M⁻¹ s⁻¹	0.026 ng/mL	0.3	0	36.5%	29.9%	–
B2	18.9 nM	2.3	7.7	18	0.0732 s⁻¹	3.87e+06 M⁻¹ s⁻¹	0.259 ng/mL	3.3	13.5	37.5%	30.9%	0.038 ng/mL
B3	46.6 nM	5.7	0.6	3.5	0.0143 s⁻¹	308000 M⁻¹ s⁻¹	0.492 ng/mL	6.2	39.3	44.7%	31.4%	0.11 ng/mL
B4	107 nM	13	0.7	9.2	0.0375 s⁻¹	352000 M⁻¹ s⁻¹	4.16 ng/mL	52.7	347	42.7%	32%	0.975 ng/mL
B5	22.5 nM	2.8	2	5.6	0.0229 s⁻¹	1.02e+06 M⁻¹ s⁻¹	0.304 ng/mL	3.8	10.8	41.4%	32.5%	0.03 ng/mL
B6	54.6 nM	6.7	1.5	10	0.0411 s⁻¹	753000 M⁻¹ s⁻¹	0.68 ng/mL	8.6	39.1	41%	32.8%	0.11 ng/mL
B7	12.8 nM	1.6	1.7	2.7	0.0111 s⁻¹	866000 M⁻¹ s⁻¹	0.372 ng/mL	4.7	24	49.7%	31.5%	0.067 ng/mL
B8	43.3 nM	5.3	1.4	7.6	0.031 s⁻¹	717000 M⁻¹ s⁻¹	0.426 ng/mL	5.4	33.7	39.3%	29.9%	0.095 ng/mL
B9	301 nM	37	0.7	25	0.104 s⁻¹	347000 M⁻¹ s⁻¹	–	–	–	–	–	–
B10	21.4 nM	2.6	2.6	6.8	0.028 s⁻¹	1.31e+06 M⁻¹ s⁻¹	0.225 ng/mL	2.9	3.8	40.8%	28.4%	0.011 ng/mL
B11	57.2 nM	7	1.7	12	0.0478 s⁻¹	837000 M⁻¹ s⁻¹	1.28 ng/mL	16.2	44.9	44.2%	30.7%	0.126 ng/mL
B12	68.6 nM	8.4	0.6	5.4	0.022 s⁻¹	321000 M⁻¹ s⁻¹	1.22 ng/mL	15.5	72.3	45.1%	31.5%	0.203 ng/mL
B13	205 nM	25	0.6	14	0.0588 s⁻¹	287000 M⁻¹ s⁻¹	4.69 ng/mL	59.3	324	41.3%	30.6%	0.91 ng/mL
B14	12.7 nM	1.6	6.1	9.6	0.0391 s⁻¹	3.07e+06 M⁻¹ s⁻¹	8.11 ng/mL	103	247	32.3%	32.8%	0.693 ng/mL
